The values that follow come from patent US20050037969A1 (ARBOR VITA, published 2005).

Ends that are not written are not given here. * marks the point of attachment. Biotin = O=C1N[C@H]2[C@H](CS[C@H]2CCCCC(=O)*)N1

To fix the notation:
B1: CD62E C-terminal peptide AA48L (peptide)
peptide: Biotin-SSSQSLESDGSYQKPSYIL
notes: Only the last four residues are seen in the excerpts
B2: CD105 C-terminal peptide AA16L, biotinylated (peptide)
peptide: Biotin-STNHSIGSTQSTPCSTSSMA
notes: also called CD105 (endoglin)
B3: FasL C-terminal peptide AA23L-M, biotinylated (peptide)
peptide: Biotin-SSKSKSSEESQTFFGLYKL
modifications: not fully specified
notes: also called FasLigand; Fas ligand

T2 sequence (Q2T9M1 other isoform, or with tags, fused parts or gaps limits assumed): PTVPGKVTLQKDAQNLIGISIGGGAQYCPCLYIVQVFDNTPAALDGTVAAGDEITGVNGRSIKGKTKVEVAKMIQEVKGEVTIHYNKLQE

The first assay has as its target T1, ConEn PDZ-GST fusion protein (Homo sapiens (Human), UniProt Q969H4 193-287).
T1 construct: The label ConEn is not explained in the excerpts
T1 sequence: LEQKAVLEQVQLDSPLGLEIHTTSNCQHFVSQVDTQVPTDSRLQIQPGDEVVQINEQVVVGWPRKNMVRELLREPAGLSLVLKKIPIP
The experiment in a line: A/G assays.
Regarding B1, the binding result is reported as “no binding”.
As for B2, the binding result is on record as “no binding”.
Same read-out and setting: in the case of B3 it was “no binding”.

A further assay concerns the target T2, PICK1 PDZ-GST fusion protein (Bos taurus (Bovine), UniProt Q2T9M1 17-105).
T2 construct: Order of GST and PDZ part and limits not seen in the excerpts
The experiment in a line: A/G assays.
For the molecule B1, the binding result is reported as “no binding”.
On the same count and under the same terms, in the case of B2 it was “no binding”; in that of B3, “no binding”.

The target of a further assay is T3, GST-AF6 PDZ domain fusion protein (Homo sapiens (Human), UniProt P55196 1001-1093).
T3 construct: also called af-6 protein; not shown: glutathione S-transferase encoded by vector pGEX-3X (Pharmacia)
T3 sequence: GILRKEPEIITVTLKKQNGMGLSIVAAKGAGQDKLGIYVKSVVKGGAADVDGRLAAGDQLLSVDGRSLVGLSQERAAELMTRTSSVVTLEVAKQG
Briefly: A/G assays.
As to B1, the binding result is listed as “no binding”.
Still for that read-out and setting: the value for B2 was “no binding”; that for B3 was “no binding”.

Another assay addresses T4, SP short PDZ-GST fusion protein (Homo sapiens (Human), UniProt O43464 350-435).
T4 construct: The label SP short is not explained in the excerpts
T4 sequence: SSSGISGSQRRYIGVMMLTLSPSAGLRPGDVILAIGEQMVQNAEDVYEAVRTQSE
Briefly: A/G assays.
With B1, the binding result was “no binding”.
On the same count and under the same terms, the value for B2 was “no binding”.
Still for that read-out and setting: the value for B3 was “no binding”.

The next assay has as its target T5, GST-TAX-IP43 PDZ domain fusion protein (human, UniProt Q13884 109-180).
T5 construct: also called TAX43; not shown: glutathione S-transferase encoded by vector pGEX-3X (Pharmacia)
T5 sequence: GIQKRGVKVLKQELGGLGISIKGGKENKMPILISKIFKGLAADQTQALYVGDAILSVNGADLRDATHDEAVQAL
The experiment in a line: A/G assays.
For the molecule B1, the binding result is “no binding”.
Same read-out and setting: the value for B2 was “no binding”; that for B3 was “no binding”.

In a further assay the target is T6, GST-DLG5 (p-dlg) PDZ domain fusion protein (Human, UniProt Q8TDM6 1343-1583).
T6 construct: also called Human discs large protein p-dlg; not shown: glutathione S-transferase encoded by vector pGEX-3X (Pharmacia)
T6 sequence: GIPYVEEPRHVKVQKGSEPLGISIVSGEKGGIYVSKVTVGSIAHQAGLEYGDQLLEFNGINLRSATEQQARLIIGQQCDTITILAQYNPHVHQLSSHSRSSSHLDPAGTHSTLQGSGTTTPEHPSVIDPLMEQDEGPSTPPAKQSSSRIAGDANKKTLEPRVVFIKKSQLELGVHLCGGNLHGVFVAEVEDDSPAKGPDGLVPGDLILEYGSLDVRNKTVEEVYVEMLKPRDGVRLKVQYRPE
Briefly: A/G assays.
With B1, the binding result is “no binding”.
On the same count and under the same terms, the value for B2 was “no binding”; that for B3 was “no binding”.

Another assay deals with T7, GST-prIL16 fusion protein (PDZ domains 1-2) (Homo sapiens (Human), UniProt Q14005 1111-1324).
T7 construct: also called putative interleukin 16 precursor; not shown: glutathione S-transferase encoded by vector pGEX-3X (Pharmacia)
T7 sequence: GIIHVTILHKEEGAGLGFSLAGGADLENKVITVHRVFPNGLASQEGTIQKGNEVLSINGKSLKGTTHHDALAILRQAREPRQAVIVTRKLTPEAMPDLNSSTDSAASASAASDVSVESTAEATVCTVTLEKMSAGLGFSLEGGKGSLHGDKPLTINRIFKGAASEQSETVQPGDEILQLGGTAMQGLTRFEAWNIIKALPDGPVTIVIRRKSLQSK
Briefly: A/G assays.
With B1, the binding result is “no binding”.
Same read-out and setting: in the case of B2 it was “no binding”; in that of B3, “no binding”.

For another assay, the target named is T8, GST-DVL1 PDZ domain fusion protein (human, UniProt O14640 247-339).
T8 construct: also called human dishevelled segment polarity protein homolog; not shown: glutathione S-transferase encoded by vector pGEX-3X (Pharmacia)
T8 sequence: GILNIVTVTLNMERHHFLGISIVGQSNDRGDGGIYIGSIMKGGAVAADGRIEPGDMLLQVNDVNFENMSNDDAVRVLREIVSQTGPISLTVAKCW
The experiment in a line: A/G assays.
Turning to B1, the binding result is “no binding”.
The same measure, in the same setting: in the case of B2 it was “no binding”.
The same measure, in the same setting: the value for B3 was “no binding”.

In the next assay the target is T9, GST-TAX-IP2 PDZ domain fusion protein (human, UniProt O14908 129-216).
T9 construct: also called TAX-1P2; TAX2; not shown: glutathione S-transferase encoded by vector pGEX-3X (Pharmacia)
T9 chain: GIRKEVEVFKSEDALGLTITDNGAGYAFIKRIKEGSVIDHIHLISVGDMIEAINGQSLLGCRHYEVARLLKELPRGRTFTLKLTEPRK
The experiment in a line: A/G assays.
With B1, the binding result is on record as “no binding”.
For the molecule B2, the binding result was “no binding”.
Still for that read-out and setting: the value for B3 was “no binding”.

The target in another assay is T10, K858 PDZ-GST fusion protein (Homo sapiens (Human), UniProt Q8WWI1 1038-1131).
T10 construct: Order of GST and PDZ part and limits not seen in the excerpts
T10 sequence: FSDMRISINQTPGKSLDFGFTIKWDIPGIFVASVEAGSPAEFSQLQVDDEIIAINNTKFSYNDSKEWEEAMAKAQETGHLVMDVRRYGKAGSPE
Briefly: A/G assays.
In the case of B1, the binding result is given as “no binding”.
On the same count and under the same terms, the value for B2 was “no binding”; that for B3 was “no binding”.

The target in the next assay is T11, GST-KIAA0303 PDZ domain fusion protein (Homo sapiens (Human), UniProt O15021 1138-1228).
T11 construct: also called K303; not shown: glutathione S-transferase encoded by vector pGEX-3X (Pharmacia)
T11 sequence: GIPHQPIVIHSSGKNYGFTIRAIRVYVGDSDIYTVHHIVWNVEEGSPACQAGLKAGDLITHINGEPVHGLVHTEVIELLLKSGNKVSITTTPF
Briefly: A/G assays.
In the case of B1, the binding result was “no binding”.
In the case of B2, the binding result is recorded as “no binding”.
Still for that read-out and setting: the value for B3 was “no binding”.

The target in the next assay is T12, K316 PDZ-GST fusion protein (Homo sapiens (Human), UniProt Q14CM0 72-159).
T12 construct: Order of GST and PDZ part and limits not seen in the excerpts
T12 sequence (Q14CM0 72-159 limits assumed): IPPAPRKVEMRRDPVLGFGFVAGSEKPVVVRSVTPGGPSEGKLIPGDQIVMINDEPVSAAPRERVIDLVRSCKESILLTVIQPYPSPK
The experiment in a line: A/G assays.
As to B1, the binding result was “no binding”.
The same measure, in the same setting: in the case of B2 it was “no binding”; in that of B3, “no binding”.

In the next assay the target is T13, GEF PDZ-GST fusion protein (Homo sapiens (Human), UniProt Q8TEU7 293-400).
T13 construct: The label GEF is not explained in the excerpts
T13 sequence: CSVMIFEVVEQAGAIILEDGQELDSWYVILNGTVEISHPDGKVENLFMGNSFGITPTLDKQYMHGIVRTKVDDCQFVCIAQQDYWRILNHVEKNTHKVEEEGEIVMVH
Briefly: A/G assays.
For B1, the binding result is recorded as “no binding”.
Still for that read-out and setting: in the case of B2 it was “no binding”.
Same read-out and setting: in the case of B3 it was “no binding”.

Another assay deals with T14, GST-TIAM1 PDZ domain fusion protein (Homo sapiens (Human), UniProt Q13009 845-931).
T14 construct: also called TLAM1; T-lymphoma invasion and metastasis inducing protein 1; not shown: glutathione S-transferase encoded by vector pGEX-3X (Pharmacia)
T14 sequence (Q13009 other isoform, or with tags, fused parts or gaps): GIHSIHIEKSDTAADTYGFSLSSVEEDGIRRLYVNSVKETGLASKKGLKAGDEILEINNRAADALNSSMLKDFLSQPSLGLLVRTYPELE
Briefly: A/G assays.
For the molecule B1, the binding result is reported as “no binding”.
As for B2, the binding result is given as “no binding”.
Still for that read-out and setting: in the case of B3 it was “no binding”.

The target in a further assay is T15, TAX-IP33 PDZ-GST fusion protein (Homo sapiens (Human), UniProt O14910 103-193).
T15 construct: Order of GST and PDZ part and limits not seen in the excerpts
T15 sequence: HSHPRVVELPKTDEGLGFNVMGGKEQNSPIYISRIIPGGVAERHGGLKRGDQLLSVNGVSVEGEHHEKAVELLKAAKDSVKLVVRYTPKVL
Briefly: A/G assays.
For B1, the binding result is “no binding”.
For the molecule B2, the binding result was “no binding”.
Same read-out and setting: in the case of B3 it was “no binding”.

A further assay deals with T16, TAX-IP2L PDZ-GST fusion protein (Homo sapiens (Human), UniProt Q8TF64 107-197).
T16 construct: Order of GST and PDZ part and limits not seen in the excerpts
T16 sequence: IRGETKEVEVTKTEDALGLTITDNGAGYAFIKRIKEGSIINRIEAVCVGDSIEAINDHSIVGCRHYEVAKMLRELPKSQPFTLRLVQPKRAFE
Briefly: A/G assays.
In the case of B1, the binding result is recorded as “no binding”.
Regarding B2, the binding result was “no binding”.
B3: the binding result was “no binding”.
